Measured values reported in patent US20140271457A1 (AbbVie / Abbott, published 2014).
Positions count from the first letter of the chain named.

B1: DVD2793 (bispecific antibody, IgG1)
VH: EVQLVQSGAEVKKPGASVKVSCKASGYTFANYGIIWVRQAPGQGLEWMGWINTYTGKPTYAQKFQGRVTMTTDTSTSTAYMELSSLRSEDTAVYYCARKLFTTMDVTDNAMDYWGQGTTVTVSSGGGGSGGGGSEVQLVQSGAEVKKPGASVKVSCKASGYTFTKYWLGWVRQAPGQGLEWMGDIYPGYDYTHYNEKFKDRVTLTTDTSTSTAYMELRSLRSDDTAVYYCARSDGSSTYWGQGTLVTVSS
VL: DIQMTQSPSSLSASVGDRVTITCRASQDISQYLNWYQQKPGKAPKLLIYYTSRLQSGVPSRFSGSGSGTDFTLTISSLQPEDFATYFCQQGNTWPPTFGQGTKLEIKRGGSGGGGSGDVLMTQTPLSLPVTPGEPASISCTSSQNIVHSNGNTYLEWYLQKPGQSPQLLIYKVSNRFSGVPDRFSGSGSGTDFTLKISRVEAEDVGVYYCFQVSHVPYTFGGGTKVEIKR
B2: DVD2748 (bispecific antibody, IgG1)
VH: EVQLVQSGAEVKKPGASVKVSCKASGYTFTKYWLGWVRQAPGQGLEWMGDIYPGYDYTHYNEKFKDRVTLTTDTSTSTAYMELRSLRSDDTAVYYCARSDGSSTYWGQGTLVTVSSGGGGSGGGGSEVQLVESGGGLVQPGGSLRLSCAASGFTFSNYGVEWVRQAPGKGLEWVSGIWADGSTHYADTVKSRFTISRDNSKNTLYLQMNSLRAEDTAVYYCAREWQHGPVAYWGQGTLVTVSS
VL: DVLMTQTPLSLPVTPGEPASISCTSSQNIVHSNGNTYLEWYLQKPGQSPQLLIYKVSNRFSGVPDRFSGSGSGTDFTLKISRVEAEDVGVYYCFQVSHVPYTFGGGTKVEIKRGGSGGGGSGDIQMTQSPSSLSASVGDRVTITCKASQLVSSAVAWYQQKPGKAPKLLIYWASTLHTGVPSRFSGSGSGTDFTLTISSLQPEDFATYYCQQHYRTPFTFGQGTKLEIKR
B3: DVD2794 (bispecific antibody, IgG1)
VH: EVQLVQSGAEVKKPGASVKVSCKASGYTFANYGIIWVRQAPGQGLEWMGWINTYTGKPTYAQKFQGRVTMTTDTSTSTAYMELSSLRSEDTAVYYCARKLFTTMDVTDNAMDYWGQGTTVTVSSASTKGPEVQLVQSGAEVKKPGASVKVSCKASGYTFTKYWLGWVRQAPGQGLEWMGDIYPGYDYTHYNEKFKDRVTLTTDTSTSTAYMELRSLRSDDTAVYYCARSDGSSTYWGQGTLVTVSS
VL: DIQMTQSPSSLSASVGDRVTITCRASQDISQYLNWYQQKPGKAPKLLIYYTSRLQSGVPSRFSGSGSGTDFTLTISSLQPEDFATYFCQQGNTWPPTFGQGTKLEIKRTVAAPDVLMTQTPLSLPVTPGEPASISCTSSQNIVHSNGNTYLEWYLQKPGQSPQLLIYKVSNRFSGVPDRFSGSGSGTDFTLKISRVEAEDVGVYYCFQVSHVPYTFGGGTKVEIKR
B4: DVD2702 (bispecific antibody, IgG1)
VH: EVQLVQSGAEVKKPGASVKVSCKASGYTFTKYWLGWVRQAPGQGLEWMGDIYPGYDYTHYNEKFKDRVTLTTDTSTSTAYMELRSLRSDDTAVYYCARSDGSSTYWGQGTLVTVSSASTKGPSVFPLAPEVQLVESGGGLVQPGGSLRLSCAASGFTFSNYGVTWVRQAPGKGLEWVSMIWADGSTHYASSVKGRFTISRDNSKNTLYLQMNSLRAEDTAVYYCAREWQHGPVAYWGQGTLVTVSS
VL: DVLMTQTPLSLPVTPGEPASISCTSSQNIVHSNGNTYLEWYLQKPGQSPQLLIYKVSNRFSGVPDRFSGSGSGTDFTLKISRVEAEDVGVYYCFQVSHVPYTFGGGTKVEIKRTVAAPDIQMTQSPSSLSASVGDRVTITCRASQLVSSAVAWYQQKPGKAPKLLIYWASARHTGVPSRFSGSGSGTDFTLTISSLQPEDFATYYCQQHYKTPFTFGQGTKLEIKR
B5: DVD2752 (bispecific antibody, IgG1)
VH: B4 VH with T164E, M179G, S190D, S191T, G194S
VL: B4 VL with R142K, A171T, R172L, K211R
B6: DVD2743 (bispecific antibody, IgG1)
VH: EVQLVESGGGLVQPGGSLRLSCAASGFTFSNYGVEWVRQAPGKGLEWVSGIWADGSTHYADTVKSRFTISRDNSKNTLYLQMNSLRAEDTAVYYCAREWQHGPVAYWGQGTLVTVSSGGGGSGGGGSEVQLVQSGAEVKKPGASVKVSCKASGYTFTKYWLGWVRQAPGQGLEWMGDIYPGYDYTHYNEKFKDRVTLTTDTSTSTAYMELRSLRSDDTAVYYCARSDGSSTYWGQGTLVTVSS
VL: DIQMTQSPSSLSASVGDRVTITCKASQLVSSAVAWYQQKPGKAPKLLIYWASTLHTGVPSRFSGSGSGTDFTLTISSLQPEDFATYYCQQHYRTPFTFGQGTKLEIKRGGSGGGGSGDVLMTQTPLSLPVTPGEPASISCTSSQNIVHSNGNTYLEWYLQKPGQSPQLLIYKVSNRFSGVPDRFSGSGSGTDFTLKISRVEAEDVGVYYCFQVSHVPYTFGGGTKVEIKR
B7: DVD2744 (bispecific antibody, IgG1)
VH: EVQLVESGGGLVQPGGSLRLSCAASGFTFSNYGVEWVRQAPGKGLEWVSGIWADGSTHYADTVKSRFTISRDNSKNTLYLQMNSLRAEDTAVYYCAREWQHGPVAYWGQGTLVTVSSASTKGPEVQLVQSGAEVKKPGASVKVSCKASGYTFTKYWLGWVRQAPGQGLEWMGDIYPGYDYTHYNEKFKDRVTLTTDTSTSTAYMELRSLRSDDTAVYYCARSDGSSTYWGQGTLVTVSS
VL: DIQMTQSPSSLSASVGDRVTITCKASQLVSSAVAWYQQKPGKAPKLLIYWASTLHTGVPSRFSGSGSGTDFTLTISSLQPEDFATYYCQQHYRTPFTFGQGTKLEIKRTVAAPDVLMTQTPLSLPVTPGEPASISCTSSQNIVHSNGNTYLEWYLQKPGQSPQLLIYKVSNRFSGVPDRFSGSGSGTDFTLKISRVEAEDVGVYYCFQVSHVPYTFGGGTKVEIKR
B8: DVD2747 (bispecific antibody, IgG1)
VH: EVQLVESGGGLVQPGGSLRLSCAASGFTFSNYGVEWVRQAPGKGLEWVSGIWADGSTHYADTVKSRFTISRDNSKNTLYLQMNSLRAEDTAVYYCAREWQHGPVAYWGQGTLVTVSSASTKGPSVFPLAPEVQLVQSGAEVKKPGASVKVSCKASGYTFTKYWLGWVRQAPGQGLEWMGDIYPGYDYTHYNEKFKDRVTLTTDTSTSTAYMELRSLRSDDTAVYYCARSDGSSTYWGQGTLVTVSS
VL: B7 VL
B9: DVD2746 (bispecific antibody, IgG1)
VH: B7 VH
VL: DIQMTQSPSSLSASVGDRVTITCKASQLVSSAVAWYQQKPGKAPKLLIYWASTLHTGVPSRFSGSGSGTDFTLTISSLQPEDFATYYCQQHYRTPFTFGQGTKLEIKRTVAAPSVFIFPPDVLMTQTPLSLPVTPGEPASISCTSSQNIVHSNGNTYLEWYLQKPGQSPQLLIYKVSNRFSGVPDRFSGSGSGTDFTLKISRVEAEDVGVYYCFQVSHVPYTFGGGTKVEIKR

Biological target: Recombinant Human TNF-α/TNFSF1A (human, UniProt P01375 77-233)
Sequence (P01375 77-233 limits assumed): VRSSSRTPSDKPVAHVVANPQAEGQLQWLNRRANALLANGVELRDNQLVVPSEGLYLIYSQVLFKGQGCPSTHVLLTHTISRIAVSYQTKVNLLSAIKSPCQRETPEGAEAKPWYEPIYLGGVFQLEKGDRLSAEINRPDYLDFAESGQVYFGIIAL
Test: cell-based or functional assay

Binder | N-Terminal VD huTNFα Neutralization Assay IC50 | C-Terminal VD huTNFα Neutralization Assay IC50
B1 | 6 pM | 
B2 |  | 2880 pM
B3 | 3 pM | 
B4 |  | 106 pM
B5 |  | 384 pM
B6 | 6 pM | 
B7 | 3 pM | 
B8 | 3 pM | 
B9 | 6 pM | 
